Measured values from patent publication US20260248946A1 (TUOJIE BIOTECH SHANGHAI, published 2026).

How the values were obtained:
[1] = molecular target: T1, fusion protein of human CD79B extracellular domain (ECD) and His tag (human, UniProt P40259 29-159); test: SPR, Human CD79B-His protein
T1 construct: also called human CD79B ECD-His; Human CD79B-His protein
T1 sequence: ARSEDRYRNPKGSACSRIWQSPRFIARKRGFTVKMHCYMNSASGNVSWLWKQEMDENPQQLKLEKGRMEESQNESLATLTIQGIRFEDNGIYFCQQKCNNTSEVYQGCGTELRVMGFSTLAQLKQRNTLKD

[2] = molecular target: T2, human CD79B-His protein (Cat. #29750-H08H, Sino Biological) (human, UniProt P40259 29-159); test: Biacore T200, antibody captured by anti-human capture antibody on CM5, 1:1 Langmuir fit; EC50
T2 construct: also called human CD79B protein; CD79B protein
T2 sequence (looked up): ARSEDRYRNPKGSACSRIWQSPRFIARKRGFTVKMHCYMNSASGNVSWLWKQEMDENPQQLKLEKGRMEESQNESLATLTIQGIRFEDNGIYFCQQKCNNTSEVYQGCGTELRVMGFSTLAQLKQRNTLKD
From the text: Experimental procedures: human antibody capture antibodies were covalently coupled to a CM5 biochip according to the method described instructions of the human antibody capture kit for affinity capture of a certain amount of CD79B antibody.
Statistics and analysis of data: data were fitted by BIAevaluation version 4.1, GE software using a (1:1) Langmuir model to obtain affinity values.

[3] = molecular target: T3, human CD79B on the surface of cells (DoHH2 / DOHH-2, WSU-DLCL2) (human, UniProt P40259 29-229); test: FACS on DoHH2 cells
T3 construct: whole, on cells; also called CD79B protein on the surface of DoHH2 cells; DoHH2 cell
T3 sequence (looked up): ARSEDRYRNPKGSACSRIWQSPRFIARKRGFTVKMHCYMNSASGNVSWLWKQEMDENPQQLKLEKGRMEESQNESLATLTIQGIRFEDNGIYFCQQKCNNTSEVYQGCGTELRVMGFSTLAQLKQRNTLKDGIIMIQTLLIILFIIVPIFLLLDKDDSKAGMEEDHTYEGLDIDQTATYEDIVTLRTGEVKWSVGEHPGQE

[4] = molecular target: T1, fusion protein of human CD79B …; test: ELISA on Human CD79B-His protein

- Kd [1]: 1.5 nM
- EC50 [2]: 0.38 nM
- EC50 [3]: 0.4 nM
- EC50 [4]: 0.05 nM
B1: hAb015-10 (antibody, human IgG1, kappa, V domains shown)
VH: EVQLVQSGAEVKKPGSSVKVSCKASGSSFSSYGINWVKQAPGQGLEWIGEIFPRSGNTYYNEKFEGRATLTADKSTSTAYMELRSLRSEDTAVYYCAKGDLGDFDYWGQGTTVTVSS
VL: DFVMTQTPLSLPVTPGEPASISCRSSQSIVHSDGNTYFEWYLQKPGQSPKLLIYKVSNRFSGVPDRFSGSGSGTDFTLKISRVEAEDVGVYYCFQGSHVPWTFGGGTKVEIKR
notes: Humanized antibody; also called hAb015-10 humanized antibody; humanized mAb015
